Measured values reported in US20140123330.

System: btGDF83.1 TALEN pair (synthetic (TALE-FokI))
Assay: cell_activity
Conditions: SURVEYOR; bovine fibroblasts; active at 30 and 37 C; pair called btGDF8.1 and btGDF83.1

bovine GDF8 exon 3 target
activity (% chromosomes cleaved): < 16
